According to article PMC9352680, “A comprehensive thermodynamic model for RNA binding by the Saccharomyces cerevisiae Pumilio protein PUF4”:
Numbering of substitutions follows the chain as printed. Numbers in names are those of the source.

T1: PUF4 RNA-binding domain (Saccharomyces cerevisiae, UniProt P25339 537-888)
T1 sequence: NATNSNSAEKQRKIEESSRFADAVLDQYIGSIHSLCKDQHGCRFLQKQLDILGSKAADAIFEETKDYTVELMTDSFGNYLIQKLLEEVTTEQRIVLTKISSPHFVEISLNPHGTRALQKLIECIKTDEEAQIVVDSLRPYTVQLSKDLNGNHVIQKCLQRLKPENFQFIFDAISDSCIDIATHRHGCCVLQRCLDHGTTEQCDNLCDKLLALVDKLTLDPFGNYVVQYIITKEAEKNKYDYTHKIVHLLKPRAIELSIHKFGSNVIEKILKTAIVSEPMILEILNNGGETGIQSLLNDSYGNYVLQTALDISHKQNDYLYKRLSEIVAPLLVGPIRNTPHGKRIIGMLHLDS

B1: Ic_S4_P4E.1_K4.1_C4.1_H4.1_A4.1_[T5A]_[A6T]_[T7A]_F4.1_[T8C]_T4.1 (ssRNA)
RNA: UUUGACAACUGAUCGUUCUUUCUUGUAAUACAUUCUUUCUCGAUCAGUUGUCUUU
B2: Ic_S4_P4E.1_K4.1_C4.1_H4.1_A4.1_[T5A]_[A6T]_[T7A]_F4.1_[T8A]_T4.1 (ssRNA)
RNA: B1 RNA with C31A
B3: Ic_S4_P4E.1_K4.1_C4.1_H4.1_A4.1_[A6G]_F4.1_[T8A]_T4.1 (ssRNA)
RNA: B1 RNA with A28U, U29G, A30U, C31A
B4: Ic_S4_P4E.1_K4.1_C4.1_H4.1_A4.1_[T5A]_[T7C]_F4.1_[T8G]_[A9T]_T4.1 (ssRNA)
RNA: B1 RNA with U29A, A30C, C31G, A32U
B5: Ic_S4_P4E.1_K4.1_C4.1_H4.1_A4.1_[T5A]_[A6T]_F4.1_[T8G]_[A9C]_T4.1 (ssRNA)
RNA: B1 RNA with A30U, C31G, A32C
B6: Ic_S4_P4E.1_K4.1_C4.1_H4.1_A4.1_[A6G]_[T7G]_F4.1_[T8C]_[A9T]_T4.1 (ssRNA)
RNA: B1 RNA with A28U, U29G, A30G, A32U
B7: Ic_S4_P4E.1_K4.1_C4.1_H4.1_A4.1_[A6G]_[T7G]_F4.1_[A9T]_T4.1 (ssRNA)
RNA: B1 RNA with A28U, U29G, A30G, C31U, A32U
B8: Ic_S4_P4E.1_K4.1_C4.1_H4.1_A4.1_[T5A]_[A6T]_[T7A]_F4.1_T4.1 (ssRNA)
RNA: B1 RNA with C31U
B9: Ic_S4_P4E.1_K4.1_C4.1_H4.1_A4.1_[T5A]_[A6T]_F4.1_[T8C]_T4.1 (ssRNA)
RNA: B1 RNA with A30U
B10: Ic_S4_P4E.1_K4.1_C4.1_H4.1_A4.1_[T5A]_[T7C]_F4.1_[A9C]_T4.1 (ssRNA)
RNA: B1 RNA with U29A, A30C, C31U, A32C
B11: Ic_S4_P4E.1_K4.1_C4.1_H4.1_A4.1_[A6G]_[T7G]_F4.1_[T8C]_[A9G]_T4.1 (ssRNA)
RNA: B1 RNA with A28U, U29G, A30G, A32G
B12: Ic_S4_P4E.1_K4.1_C4.1_H4.1_A4.1_[T5A]_[T7C]_F4.1_[A9T]_T4.1 (ssRNA)
RNA: B1 RNA with U29A, A30C, C31U, A32U
B13: Ic_S4_P4E.1_K4.1_C4.1_H4.1_A4.1_[A6G]_[T7C]_F4.1_[T8G]_[A9C]_T4.1 (ssRNA)
RNA: B1 RNA with A28U, U29G, A30C, C31G, A32C
B14: Ic_S4_P4E.1_K4.1_C4.1_H4.1_A4.1_[T5A]_[A6T]_F4.1_[T8A]_[A9T]_T4.1 (ssRNA)
RNA: B1 RNA with A30U, C31A, A32U
B15: Ic_S4_P4E.1_K4.1_C4.1_H4.1_A4.1_[T5A]_[T7C]_F4.1_[T8C]_[A9C]_T4.1 (ssRNA)
RNA: B1 RNA with U29A, A30C, A32C
B16: Ic_S4_P4E.1_K4.1_C4.1_H4.1_A4.1_[T5A]_[T7C]_F4.1_[T8A]_[A9T]_T4.1 (ssRNA)
RNA: B1 RNA with U29A, A30C, C31A, A32U
B17: Ic_S4_P4E.1_K4.1_C4.1_H4.1_A4.1_[T5A]_[T7A]_F4.1_[A9G]_T4.1 (ssRNA)
RNA: B1 RNA with U29A, C31U, A32G
B18: Ic_S4_P4E.1_K4.1_C4.1_H4.1_A4.1_[A6G]_F4.1_[T8C]_[A9T]_T4.1 (ssRNA)
RNA: B1 RNA with A28U, U29G, A30U, A32U
B19: Ic_S4_P4E.1_K4.1_C4.1_H4.1_A4.1_[A6G]_F4.1_[T8A]_[A9G]_T4.1 (ssRNA)
RNA: B1 RNA with A28U, U29G, A30U, C31A, A32G
B20: Ic_S4_P4E.1_K4.1_C4.1_H4.1_A4.1_[T5A]_[T7A]_F4.1_[T8C]_[A9T]_T4.1 (ssRNA)
RNA: B1 RNA with U29A, A32U
B21: Ic_S4_P4E.1_K4.1_C4.1_H4.1_A4.1_[T5A]_[T7C]_F4.1_[T8C]_[A9T]_T4.1 (ssRNA)
RNA: B1 RNA with U29A, A30C, A32U
B22: Ic_S4_P4E.1_K4.1_C4.1_H4.1_A4.1_[T5A]_[A6T]_[T7A]_F4.1_[A9G]_T4.1 (ssRNA)
RNA: B1 RNA with C31U, A32G
B23: Ic_S4_P4E.1_K4.1_C4.1_H4.1_A4.1_[A6G]_F4.1_[T8C]_[A9C]_T4.1 (ssRNA)
RNA: B1 RNA with A28U, U29G, A30U, A32C
B24: Ic_S4_P4E.1_K4.1_C4.1_H4.1_A4.1_[T5A]_[A6T]_F4.1_[A9C]_T4.1 (ssRNA)
RNA: B1 RNA with A30U, C31U, A32C
B25: Ic_S4_P4E.1_K4.1_C4.1_H4.1_A4.1_[T5A]_[A6T]_[T7A]_F4.1_[A9C]_T4.1 (ssRNA)
RNA: B1 RNA with C31U, A32C
B26: Ic_S4_P4E.1_K4.1_C4.1_H4.1_A4.1_[A6G]_[T7C]_F4.1_[T8C]_T4.1 (ssRNA)
RNA: B1 RNA with A28U, U29G, A30C
B27: Ic_S4_P4E.1_K4.1_C4.1_H4.1_A4.1_[A6G]_[T7C]_F4.1_[T8C]_[A9C]_T4.1 (ssRNA)
RNA: B1 RNA with A28U, U29G, A30C, A32C
B28: Ic_S4_P4E.1_K4.1_C4.1_H4.1_A4.1_[T5A]_[T7A]_F4.1_T4.1 (ssRNA)
RNA: B1 RNA with U29A, C31U
B29: Ic_S4_P4E.1_K4.1_C4.1_H4.1_A4.1_[A6G]_[T7C]_F4.1_[T8A]_T4.1 (ssRNA)
RNA: B1 RNA with A28U, U29G, A30C, C31A
B30: Ic_S4_P4E.1_K4.1_C4.1_H4.1_A4.1_[A6G]_[T7C]_F4.1_[T8G]_[A9T]_T4.1 (ssRNA)
RNA: B1 RNA with A28U, U29G, A30C, C31G, A32U
B31: Ic_S4_P4E.1_K4.1_C4.1_H4.1_A4.1_[A6G]_[T7C]_F4.1_[T8A]_[A9T]_T4.1 (ssRNA)
RNA: B1 RNA with A28U, U29G, A30C, C31A, A32U
B32: Ic_S4_P4E.1_K4.1_C4.1_H4.1_A4.1_[T5A]_[T7A]_F4.1_[A9T]_T4.1 (ssRNA)
RNA: B1 RNA with U29A, C31U, A32U
B33: Ic_S4_P4E.1_K4.1_C4.1_H4.1_A4.1_[T5A]_[A6T]_F4.1_[T8A]_[A9G]_T4.1 (ssRNA)
RNA: B1 RNA with A30U, C31A, A32G
B34: Ic_S4_P4E.1_K4.1_C4.1_H4.1_A4.1_[A6G]_[T7G]_F4.1_[T8C]_[A9C]_T4.1 (ssRNA)
RNA: B1 RNA with A28U, U29G, A30G, A32C
B35: Ic_S4_P4E.1_K4.1_C4.1_H4.1_A4.1_[A6G]_F4.1_[T8G]_[A9G]_T4.1 (ssRNA)
RNA: B1 RNA with A28U, U29G, A30U, C31G, A32G
B36: Ic_S4_P4E.1_K4.1_C4.1_H4.1_A4.1_[T5A]_[A6T]_[T7A]_F4.1_[T8A]_[A9C]_T4.1 (ssRNA)
RNA: B1 RNA with C31A, A32C
B37: Ic_S4_P4E.1_K4.1_C4.1_H4.1_A4.1_[T5A]_[T7A]_F4.1_[T8A]_T4.1 (ssRNA)
RNA: B1 RNA with U29A, C31A
B38: Ic_S4_P4E.1_K4.1_C4.1_H4.1_A4.1_[T5A]_[T7C]_F4.1_[T8C]_[A9G]_T4.1 (ssRNA)
RNA: B1 RNA with U29A, A30C, A32G
B39: Ic_S4_P4E.1_K4.1_C4.1_H4.1_A4.1_[A6G]_F4.1_[T8A]_[A9C]_T4.1 (ssRNA)
RNA: B1 RNA with A28U, U29G, A30U, C31A, A32C
B40: Ic_S4_P4E.1_K4.1_C4.1_H4.1_A4.1_[T5A]_F4.1_[T8A]_[A9G]_T4.1 (ssRNA)
RNA: B1 RNA with U29A, A30U, C31A, A32G
B41: Ic_S4_P4E.1_K4.1_C4.1_H4.1_A4.1_[T5A]_[A6T]_F4.1_T4.1 (ssRNA)
RNA: B1 RNA with A30U, C31U

Molecular target: T1, PUF4 RNA-binding domain
Assay: Mg; RNA-MaP; 20 mM Na-HEPES pH 7.4, 30 mM KOAc, 0.75 mM MgCl2, 0.1% Tween-20, 5% glycerol, 0.1 mg/mL BSA, 2 mM DTT; 25 C; 0.0125-409.6 nM protein
Details: tags: N-His6-TEV cleaved; C-SNAP kept, Cy3B-labelled; label: tethered on chip by stalled RNA polymerase

Binder | Kd [nM]
UCUCUUUGUAUCUAAUCUCUU (ssRNA) [Ib_S1_P4E.1_K4.1_C4.1_H4.1_A4.1_[A6C]_F4.1_[T8A]_T4.1] | 49.3
UCUCUUUGUAUACGAUCUCUU (ssRNA) [Ic_S1_P4E.1_K4.1_C4.1_H4.1_A4.1_[T7C]_F4.1_[T8G]_T4.1] | 42.1
UCUCUUUGUAUAGCAUCUCUU (ssRNA) [Ib_S1_P4E.1_K4.1_C4.1_H4.1_A4.1_[T7G]_F4.1_[T8C]_T4.1] | 26.2
UCUCUUUGUAUUUAAUCUCUU (ssRNA) [Ic_S1_P4E.1_K4.1_C4.1_H4.1_A4.1_[A6T]_F4.1_[T8A]_T4.1] | 66.5
B1 | 555
B2 | 144
B3 | 70.5
B4 | 506
B5 | 421
B6 | 624
B7 | 292
B8 | 1.95
B9 | 205
B10 | 76.1
B11 | > 2300
B12 | 51.4
B13 | 995
B14 | 56.2
B15 | 455
B16 | 211
B17 | 44.5
B18 | 74.2
B19 | 186

Binder | Kd [nM]
B20 | 258
B21 | 175
B22 | 21.6
B23 | 36.4
B24 | 64.3
B25 | 46.2
B26 | 28.5
B27 | 558
B28 | 3.34
B29 | 243
B30 | 261
B31 | 108
B32 | 65
B33 | 467
B34 | 1940
B35 | 180
B36 | 314
B37 | 202
B38 | 942
B39 | 85
B40 | 78.7
B41 | 2.38
